Two molecules from patent publication US20060121042A1 (AstraZeneca / MedImmune, published 2006) can be followed below.

Numbering of substitutions follows the chain as printed.

In test [1] the target is T1, hEph A1.
T1 construct: also called human EphA1; not shown: Fc portion of the probable EphA1-Fc fusion (human IgG1 Fc)
T1 chain: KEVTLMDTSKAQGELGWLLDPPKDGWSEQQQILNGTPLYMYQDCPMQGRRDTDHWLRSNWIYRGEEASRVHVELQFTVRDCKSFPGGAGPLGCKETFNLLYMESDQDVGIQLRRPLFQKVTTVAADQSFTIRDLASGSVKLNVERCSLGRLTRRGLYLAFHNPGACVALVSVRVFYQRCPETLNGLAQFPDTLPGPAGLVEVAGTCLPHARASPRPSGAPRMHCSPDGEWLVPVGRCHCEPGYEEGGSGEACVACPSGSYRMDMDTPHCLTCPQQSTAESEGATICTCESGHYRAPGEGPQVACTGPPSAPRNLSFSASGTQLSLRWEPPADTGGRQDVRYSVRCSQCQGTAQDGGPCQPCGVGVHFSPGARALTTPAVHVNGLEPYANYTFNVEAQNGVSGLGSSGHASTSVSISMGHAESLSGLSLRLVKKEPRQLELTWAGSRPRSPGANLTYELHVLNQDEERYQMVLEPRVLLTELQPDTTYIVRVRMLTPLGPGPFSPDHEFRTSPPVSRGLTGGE
The experiment in a line: ELISA.

Test [2] concerns the target mEph A4 (mouse, UniProt Q03137). Nature of the test: ELISA. Background: ELISA stands for enzyme-linked immunosorbent assay.
Test [3] deals with rEph A5 (rat, UniProt P54757). Nature of the test: ELISA.
Chain of rEph A5 (P54757 27-575 limits assumed): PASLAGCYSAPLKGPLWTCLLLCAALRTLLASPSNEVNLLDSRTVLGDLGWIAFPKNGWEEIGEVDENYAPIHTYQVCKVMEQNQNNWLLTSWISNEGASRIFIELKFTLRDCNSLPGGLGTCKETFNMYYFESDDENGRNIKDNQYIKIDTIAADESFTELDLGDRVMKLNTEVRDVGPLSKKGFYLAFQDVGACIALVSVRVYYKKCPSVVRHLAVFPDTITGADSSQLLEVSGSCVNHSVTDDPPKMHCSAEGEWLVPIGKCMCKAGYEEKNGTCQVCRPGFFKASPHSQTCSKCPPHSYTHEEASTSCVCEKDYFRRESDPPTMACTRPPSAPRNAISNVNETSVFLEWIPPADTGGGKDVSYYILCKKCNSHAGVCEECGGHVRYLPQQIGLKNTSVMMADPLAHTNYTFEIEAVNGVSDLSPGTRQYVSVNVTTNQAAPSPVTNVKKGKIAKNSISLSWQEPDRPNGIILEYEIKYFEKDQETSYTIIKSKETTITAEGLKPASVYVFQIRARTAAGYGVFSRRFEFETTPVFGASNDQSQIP
Test [4] deals with T2, mEph A6 (mouse, UniProt Q62413).
T2 sequence (receptor, looked up): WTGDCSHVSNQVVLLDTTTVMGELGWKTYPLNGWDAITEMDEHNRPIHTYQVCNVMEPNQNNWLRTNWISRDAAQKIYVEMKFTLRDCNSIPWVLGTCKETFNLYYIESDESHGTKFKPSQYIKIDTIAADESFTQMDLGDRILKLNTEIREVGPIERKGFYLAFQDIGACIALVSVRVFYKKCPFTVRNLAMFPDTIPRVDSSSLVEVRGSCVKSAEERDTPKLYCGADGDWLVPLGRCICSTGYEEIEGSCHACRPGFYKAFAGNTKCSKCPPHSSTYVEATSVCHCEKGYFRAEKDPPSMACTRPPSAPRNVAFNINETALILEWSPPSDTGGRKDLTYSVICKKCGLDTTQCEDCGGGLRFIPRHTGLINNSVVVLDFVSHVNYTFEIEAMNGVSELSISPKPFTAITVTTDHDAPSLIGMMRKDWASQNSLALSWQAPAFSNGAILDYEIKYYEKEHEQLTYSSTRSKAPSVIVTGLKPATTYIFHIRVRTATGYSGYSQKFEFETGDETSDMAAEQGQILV
The experiment in a line: ELISA.

Test [5] deals with T3, human EphA4 (construct not given) (human, UniProt P54764 20-547, limits assumed).
T3 construct: also called EphA4 receptor
T3 sequence (P54764 20-547 limits assumed): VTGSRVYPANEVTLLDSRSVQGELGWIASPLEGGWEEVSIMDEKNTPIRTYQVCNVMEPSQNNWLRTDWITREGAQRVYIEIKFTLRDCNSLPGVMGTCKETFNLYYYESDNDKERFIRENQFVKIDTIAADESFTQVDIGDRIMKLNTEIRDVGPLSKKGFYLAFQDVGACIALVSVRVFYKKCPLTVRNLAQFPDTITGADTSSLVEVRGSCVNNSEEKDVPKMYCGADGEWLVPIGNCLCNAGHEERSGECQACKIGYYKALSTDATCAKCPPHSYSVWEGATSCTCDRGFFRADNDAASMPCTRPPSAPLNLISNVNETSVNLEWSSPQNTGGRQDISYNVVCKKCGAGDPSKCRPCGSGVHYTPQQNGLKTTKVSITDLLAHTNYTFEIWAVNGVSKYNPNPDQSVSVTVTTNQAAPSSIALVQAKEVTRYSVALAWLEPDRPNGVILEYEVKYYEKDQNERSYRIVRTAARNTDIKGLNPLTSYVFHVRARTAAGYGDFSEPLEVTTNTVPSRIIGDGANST
The experiment in a line: ELISA.

Test [6] concerns the target T4, rrEphB1 (rat, UniProt P09759).
T4 sequence (receptor, looked up): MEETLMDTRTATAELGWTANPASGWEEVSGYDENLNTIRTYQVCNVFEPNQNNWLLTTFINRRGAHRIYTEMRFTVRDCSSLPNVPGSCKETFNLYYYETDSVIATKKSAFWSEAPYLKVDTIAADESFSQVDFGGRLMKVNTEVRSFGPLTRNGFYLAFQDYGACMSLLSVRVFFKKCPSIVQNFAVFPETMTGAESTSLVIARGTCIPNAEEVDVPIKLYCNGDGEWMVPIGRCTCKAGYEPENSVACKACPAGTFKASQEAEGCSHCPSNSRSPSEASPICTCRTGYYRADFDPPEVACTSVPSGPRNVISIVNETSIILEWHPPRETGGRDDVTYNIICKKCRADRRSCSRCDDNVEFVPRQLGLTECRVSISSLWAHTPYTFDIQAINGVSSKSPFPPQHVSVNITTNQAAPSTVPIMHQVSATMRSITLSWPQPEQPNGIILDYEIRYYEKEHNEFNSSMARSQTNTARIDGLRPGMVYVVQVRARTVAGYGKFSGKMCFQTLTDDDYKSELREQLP
The experiment in a line: ELISA.

In test [7] the target is T5, rmEph B2 (mouse, UniProt P54763).
T5 sequence (receptor, looked up): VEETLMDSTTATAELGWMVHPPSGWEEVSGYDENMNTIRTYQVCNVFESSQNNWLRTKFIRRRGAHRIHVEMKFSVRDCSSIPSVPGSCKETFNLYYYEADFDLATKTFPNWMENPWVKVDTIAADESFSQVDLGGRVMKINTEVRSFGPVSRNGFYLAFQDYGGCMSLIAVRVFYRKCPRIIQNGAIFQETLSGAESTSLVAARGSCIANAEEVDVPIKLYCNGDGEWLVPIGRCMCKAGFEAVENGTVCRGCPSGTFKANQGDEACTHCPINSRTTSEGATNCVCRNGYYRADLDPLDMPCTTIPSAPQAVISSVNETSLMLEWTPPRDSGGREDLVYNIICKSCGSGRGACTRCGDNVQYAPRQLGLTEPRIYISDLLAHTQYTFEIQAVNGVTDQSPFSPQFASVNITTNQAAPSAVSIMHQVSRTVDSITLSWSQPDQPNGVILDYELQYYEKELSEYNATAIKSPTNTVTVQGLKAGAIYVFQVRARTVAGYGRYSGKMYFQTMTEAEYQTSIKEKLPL
The experiment in a line: ELISA.

In test [8] the target is T6, rmEph B3 (mouse, UniProt P54754).
T6 sequence (receptor, looked up): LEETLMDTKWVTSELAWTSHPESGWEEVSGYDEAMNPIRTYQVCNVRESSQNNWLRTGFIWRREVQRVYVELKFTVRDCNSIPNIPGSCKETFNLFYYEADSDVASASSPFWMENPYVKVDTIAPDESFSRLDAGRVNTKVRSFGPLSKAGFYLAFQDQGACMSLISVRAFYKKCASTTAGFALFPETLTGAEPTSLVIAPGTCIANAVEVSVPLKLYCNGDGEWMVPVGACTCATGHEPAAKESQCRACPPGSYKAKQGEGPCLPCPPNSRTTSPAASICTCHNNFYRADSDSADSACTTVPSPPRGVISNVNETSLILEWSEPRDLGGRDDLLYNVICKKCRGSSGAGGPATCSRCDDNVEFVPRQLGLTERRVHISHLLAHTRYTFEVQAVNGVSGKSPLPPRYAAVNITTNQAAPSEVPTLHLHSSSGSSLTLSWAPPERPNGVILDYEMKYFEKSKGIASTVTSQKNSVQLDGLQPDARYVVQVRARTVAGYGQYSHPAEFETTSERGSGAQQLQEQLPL
The experiment in a line: ELISA.

Test [9] concerns the target T7, r murine EphA4 (mouse, UniProt Q03137).
T7 construct: recombinant Fc fusion (R&D Systems); also called rmuEphA4-Fc; mEphA4
Nature of the test: activity ELISA, Fab on coated antigen.

The target of test [10] is T8, r murine EphA7 (mouse, UniProt Q61772).
T8 construct: recombinant Fc fusion (R&D Systems); also called rmuEphA7-Fc; mEphA7
T8 sequence (receptor-Fc fusion, looked up): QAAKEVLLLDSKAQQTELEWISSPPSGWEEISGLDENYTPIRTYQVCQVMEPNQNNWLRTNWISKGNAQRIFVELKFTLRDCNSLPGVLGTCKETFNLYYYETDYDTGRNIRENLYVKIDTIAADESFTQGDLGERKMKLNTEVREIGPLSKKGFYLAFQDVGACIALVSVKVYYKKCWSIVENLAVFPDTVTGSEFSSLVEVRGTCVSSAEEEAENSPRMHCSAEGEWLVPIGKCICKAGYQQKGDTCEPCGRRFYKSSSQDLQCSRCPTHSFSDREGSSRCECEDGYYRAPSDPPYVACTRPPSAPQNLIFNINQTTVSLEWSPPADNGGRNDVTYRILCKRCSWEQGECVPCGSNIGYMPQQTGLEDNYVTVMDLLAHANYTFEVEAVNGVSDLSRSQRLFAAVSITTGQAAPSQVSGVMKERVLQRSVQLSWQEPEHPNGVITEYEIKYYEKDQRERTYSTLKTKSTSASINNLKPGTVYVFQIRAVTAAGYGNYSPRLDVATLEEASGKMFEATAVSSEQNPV
The experiment in a line: activity ELISA, Fab on coated antigen.

Test [11] concerns the target T9, r murine EphA8 (mouse, UniProt O09127).
T9 construct: recombinant (rEphA8, R&D Systems); also called rEphA8
T9 sequence (receptor, looked up): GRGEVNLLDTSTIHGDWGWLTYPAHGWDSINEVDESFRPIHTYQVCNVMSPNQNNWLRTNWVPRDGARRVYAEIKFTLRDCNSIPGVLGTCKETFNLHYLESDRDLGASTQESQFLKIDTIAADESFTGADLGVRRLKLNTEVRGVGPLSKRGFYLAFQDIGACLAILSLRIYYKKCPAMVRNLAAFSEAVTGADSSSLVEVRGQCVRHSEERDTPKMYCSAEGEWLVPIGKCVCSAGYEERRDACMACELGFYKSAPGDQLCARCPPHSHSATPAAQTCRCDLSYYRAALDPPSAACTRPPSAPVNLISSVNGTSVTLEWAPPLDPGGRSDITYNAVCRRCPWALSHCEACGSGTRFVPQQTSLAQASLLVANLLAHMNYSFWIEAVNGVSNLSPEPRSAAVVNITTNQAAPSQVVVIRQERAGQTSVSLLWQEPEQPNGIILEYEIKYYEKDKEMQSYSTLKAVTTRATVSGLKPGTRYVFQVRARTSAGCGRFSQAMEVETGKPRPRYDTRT
Nature of the test: activity ELISA, Fab on coated antigen.

Test [12] deals with T10, r murine EphA8 (mouse, UniProt O09127).
T10 construct: recombinant soluble protein coated on the plate; also called mEphA8; rEphA8
T10 sequence (receptor construct, looked up): T9 sequence (receptor, looked up)
The experiment in a line: Activity ELISA, receptor coated on the plate, periplasmic Fab, anti-human kappa-HRP, OD 450 nm.

T7 sequence (Q03137 20-547 limits assumed): as the sequence (P54764 20-547 limits assumed) above, with P59A, N121S, V124G, R250Q, S251N, T270S, K378R, N406S counted along it
Chain of mEph A4 (Q03137 20-547 limits assumed): as the sequence (P54764 20-547 limits assumed) above, with P59A, N121S, V124G, R250Q, S251N, T270S, K378R, N406S counted along it

B1: GEA44 11H1 (antibody, V domains shown)
VH: QVQLLQSGAEVKKPGASVKVPCKASGYTFTSYAMSWVRQAPGQGLEWMGWINTNTGNPTYAQGFTGRFVFSLDTSVSTAYLQISSLKAEDTAVYYCARVRLTVYGDGMDVWGQGTLVTVSS
VL: EIVLTQSPATLSVSPGERATLSCRASQSVSSNLAWYQQKPGQAPRLLIYGASTRATGIPDRFSASGSGTDFTLTISRVEPEDFAVYYCQQYGSSWTFGQGTKVEIK
notes: same variable regions as m16
Take B1: the “ELISA O.D. value” came to 0.784 in test [1]; 0.358 in test [2]; 0.717 in test [3]; 1.43 in test [4]; 0.887 in [5]; 0.581 in test [7]. For the same molecule, the binding result in [6] and in test [8] was “binds” in each case.

B2: 3A12 Fab (affinity optimized combinatorial variant of Fab20) (Fab, V domains shown)
VH: B1 VH with Y32R, L101F
VL: B1 VL with R54W, S93P
Take B2: the binding result in [9], in test [10], in [11] and in [12] was “binds” in each case.
